Test results reported in article PMC7483680 (Experimental parasitology, 2020).

Target: T1, recombinant GST-tagged wild-type Toxoplasma gondii GCN5b bromodomain (BRD) (Toxoplasma gondii, UniProt S8F3V2 877-986)
T1 sequence (looked up): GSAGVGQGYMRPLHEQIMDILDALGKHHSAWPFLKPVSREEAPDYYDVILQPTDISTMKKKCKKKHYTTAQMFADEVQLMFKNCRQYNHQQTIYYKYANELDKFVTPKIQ
Assay: pull-down

B1: biotinylated tetra-acetylated histone H4 peptide (K5/8/12/16), residues 1-18 of human histone H4 (peptide, UniProt P62805 2-19, looked up)
peptide: SGRGKGGKGLGKGGAKRH
modifications: acetyl-lysine at K5, K8, K12 and K16; biotin (position not given)
  binding result: binds
